Targets include IL70101; IL70099; IL70096; IL70110; IL70095; IL70098; IL70106; IL70104; IL70107; IL70109; IL70094; IL70092; IL70108; IL70103; IL70097; IL70093.
Holding throughout (experiment): BLI
(Biolayer interferometry detects binding as a change in optical thickness at a sensor tip.)

B1: human interleukin-7 (huIL-7), biotinylated (ligand)
chain: DCDIEGKDGKQYESVLMVSIDQLLDSMKEIGSNCLNNEFNFFKRHICDANKEGMFLFRAARKLRQFLKMNSTGDFDLHLLKVSEGTTILLNCTGQVKGRKPAALGEAQPTKSLEENKSLKEQKKLNDLCFLKRLLQEIKTCWNKILMGTKEH
modifications: biotin
What is called Kd is a measure of binding affinity in units of concentration. A lower Kd goes with higher affinity. Take B1: the Kd with IL70101 came to 1.14 nM; with IL70099, 1.53 nM; with IL70096, 0.708 nM; in the experiment with IL70110 it was 0.824 nM; with IL70095 it was 0.429 nM; with IL70098 it was 0.52 nM. In addition, the dissociation constant Kd came to 2.92 nM in the experiment with IL70106; 2.64 nM with IL70104; 2.94 nM with IL70107; 1.48 nM with IL70109; 0.754 nM in the experiment with IL70094; 0.909 nM with IL70092. The Kd with IL70108 amounted to 2.55 nM; with IL70103, 0.657 nM; with IL70097, 1.79 nM; with IL70093 it was 0.525 nM.

Source of the values: PMC10963267 (2023).
